Experimental data published in article PMC3807968 (2014).
[ ]: non-standard residue; d: D form. The star is where a group is joined. Butanoyl(4-Ph) = O=C(CCCc1ccccc1)*; Butanoyl(4-ethynyl) = C#CCCCC(=O)*

Biological target: T1, ligand 5 on uncrosslinked micelles, 5% loading (5-UXL) (not fully specified; also: uncrosslinked micelle)
T1 chain: {Butanoyl(4-Ph)}-H[dF]RWGK(Butanoyl(4-ethynyl))-NH2
Test: Eu-NDP-α-MSH time-resolved fluorescence whole-cell competition binding

B1: Melanocortin 1 receptor (protein)
chain: MAVQGSQRRLLGSLNSTPTAIPQLGLAANQTGARCLEVSISDGLFLSLGLVSLVENALVVATIAKNRNLHSPMYCFICCLALSDLLVSGSNVLETAVILLLEAGALVARAAVLQQLDNVIDVITCSSMLSSLCFLGAIAVDRYISIFYALRYHSIVTLPRARRAVAAIWVASVVFSTLFIAYYDHVAVLLCLVVFFLAMLVLMAVLYVHMLARACQHAQGIARLHKRQRPVHQGFGLKGAVTLTILLGIFFLCWGPFFLHLTLIVLCPEHPTCGCIFKNFNLFLALIICNAIIDPLIYAFHSQELRRTLKEVLTCSW
Work on B1 yielded a Ki of 12 nM.
